{"source": "paper PMC3639893", "about": "“Characterization of a Novel Metal-Dependent D-Psicose 3-Epimerase from Clostridium scindens 35704” (PLoS ONE, 2013)", "proteins": {"B1": {"name": "D-psicose 3-epimerase from Clostridium scindens ATCC 35704 (hypothetical protein CLOSCI_02528) (enzyme, UniProt B0NGC5 1-289, looked up)", "chain": "MKHGIYYAYWEQEWAADYKRYVEKAAKLGFDILEVGAAPLPDYSAQEVKELKKCADDNGIQLTAGYGPAFNHNMGSSDPKIREEALQWYKRLFEVMAGLDIHLIGGALYSYWPVDFATANKEEDWKHSVEGMQILAPIASQYGINLGMEVLNRFESHILNTSEEGVKFVTEVGMDNVKVMLDTFHMNIEESSIGDAIRHAGKLLGHFHTGECNRMVPGKGRTPWREIGDALREIEYDGTVVMEPFVRMGGQVGSDIKVWRDISKGAGEDRLDEDARRAVEFQRYMLEWK", "notes": "D-psicose 3-epimerase (hypothetical protein CLOSCI_02528, protein ID ZP_02432283) of Clostridium scindens ATCC 35704; full-length synthetic gene cloned NdeI/XhoI into pET-22b(+); No removal of the C-terminal 6xhistidine tag is described; Metal-free after dialysis against EDTA; Subunit about 32 kDa by SDS-PAGE, native enzyme about 125 kDa by gel filtration; also called C. scindens DPEase; DPEase"}}, "target": "the molecule itself", "assay": "SEC; gel filtration of the purified native enzyme, buffer and standards not told"}
{"protein": "B1", "values": [{"measurement": "stoichiometry N", "value": 4}]}
